Here are results for 2 molecules from PMC11156922, “PDZ2-conjugated-PLGA nanoparticles are tiny heroes in the battle against SARS-CoV-2” (Scientific Reports, 2024).

No end group written: not given here. *: point of attachment. Biotin = O=C1N[C@H]2[C@H](CS[C@H]2CCCCC(=O)*)N1

For test [1], the target named is Envelope protein (SARS-CoV-2) (UniProt P0DTC4). The note with it: cited from earlier work.
For test [2], the target named is T1, C-terminal portion of the SARS-CoV-2 Envelope protein, N-terminal biotinylated peptide (SARS-CoV-2).
T1 construct: also called SARS-CoV-2 E-protein; E-tetradecapeptide
T1 peptide: Biotin-VKNLNSSRVPDLLV
Put plainly: SPR; Biacore X100; biotinylated E peptide immobilised on streptavidin SA chip (target 1000 RU); PDZ2-f-NPs as analyte, 0.0625-30 uM in equivalents of protein; 25 C; HBS-EP (10 mM Hepes pH 7.4, 0.15 M NaCl, 3 mM EDTA, 0.05% P20); steady-state affinity model / Scatchard plot of maximum amplitudes. The note with it: both partners purified. In general terms: In SPR one partner is held on a chip, and binding of the other changes the refractive index at the surface.

Take ZO1 PDZ2 (from UniProt Q07157): the Kd (usually the concentration at which binding is half-saturated) in test [1] was 2.1 µM.

B1: PDZ2-ZO1 functionalized PLGA-PEG-Bis-sulfone nanoparticles (PDZ2 domain of human ZO-1, His-tagged, conjugated to the nanoparticle surface) (domain or fragment)
chain: KVTLVKSRKNEEYGLRLASHIFVKEISQDSLAARDGNIQEGDVVLKINGTVTENMSLTDAKTLIERSKGKLKMVVQRDE
modifications: His-tag chemically linked to the bis-sulfone (PEG-mono-sulfone) moiety of PLGA-PEG nanoparticles
Take B1: the Kd in test [2] is 0.97 ± 0.31 µM.
